This note sets out measurements from US20080166375A1.

The test addresses urokinase-type plasminogen activator receptor (human) (UniProt Q03405). In words: cell-based or functional assay.

Chain of urokinase-type plasminogen activator receptor (human) (Q03405 23-305): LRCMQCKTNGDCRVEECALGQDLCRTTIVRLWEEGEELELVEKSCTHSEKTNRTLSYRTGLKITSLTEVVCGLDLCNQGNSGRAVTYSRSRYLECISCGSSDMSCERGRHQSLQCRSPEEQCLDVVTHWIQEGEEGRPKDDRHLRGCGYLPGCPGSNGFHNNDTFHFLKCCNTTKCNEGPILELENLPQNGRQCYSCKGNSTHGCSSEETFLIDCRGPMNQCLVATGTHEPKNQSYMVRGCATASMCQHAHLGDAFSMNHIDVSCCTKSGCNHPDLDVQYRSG

In turn, “DTAT (from UniProt P00588 33-422; P00749 21-155)” yielded an IC50, 3H-thymidine incorporation inhibition, HUV-EC, DTAT of 26.8 pM.
